Source: publication PMC7498314, “Microcephaly family protein MCPH1 stabilizes RAD51 filaments” (Nucleic Acids Research, 2020)

T1: MCPH1 (tag-free) (Mus musculus, UniProt Q7TT79 1-822)
T1 sequence: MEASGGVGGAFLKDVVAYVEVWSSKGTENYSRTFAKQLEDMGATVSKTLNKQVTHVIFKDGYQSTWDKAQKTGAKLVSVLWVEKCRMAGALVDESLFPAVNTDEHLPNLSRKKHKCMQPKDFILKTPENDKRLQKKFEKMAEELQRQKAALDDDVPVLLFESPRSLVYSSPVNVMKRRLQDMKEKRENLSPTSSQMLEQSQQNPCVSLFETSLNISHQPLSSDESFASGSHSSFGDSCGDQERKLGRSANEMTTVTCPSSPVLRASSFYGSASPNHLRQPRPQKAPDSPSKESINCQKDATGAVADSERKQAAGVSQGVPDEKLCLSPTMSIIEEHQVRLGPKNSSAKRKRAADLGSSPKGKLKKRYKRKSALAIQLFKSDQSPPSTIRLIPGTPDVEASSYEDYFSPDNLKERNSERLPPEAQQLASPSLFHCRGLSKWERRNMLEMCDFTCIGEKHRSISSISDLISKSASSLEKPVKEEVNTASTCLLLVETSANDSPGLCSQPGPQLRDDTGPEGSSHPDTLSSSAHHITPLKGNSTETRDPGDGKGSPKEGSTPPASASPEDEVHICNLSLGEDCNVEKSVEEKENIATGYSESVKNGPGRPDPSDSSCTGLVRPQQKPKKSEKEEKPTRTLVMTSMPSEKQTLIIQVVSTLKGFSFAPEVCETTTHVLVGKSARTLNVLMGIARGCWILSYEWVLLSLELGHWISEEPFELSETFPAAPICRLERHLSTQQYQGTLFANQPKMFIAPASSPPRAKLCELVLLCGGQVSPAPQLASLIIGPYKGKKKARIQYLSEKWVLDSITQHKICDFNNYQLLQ

T2: (His)6-MBP-tagged mouse MCPH1 (Microcephalin 1) (mouse, UniProt Q7TT79 1-822)
T2 construct: mouse MCPH1 (microcephalin 1), wild type, cDNA NM_173189.2; calculated molecular mass of the untagged protein 90,372 Da; A PreScission protease site lies between the (His)6-MBP tag and MCPH1; the uncleaved, tagged protein was used in the pull-downs; Tag-free MCPH1 (tag cleaved) was used in the Benzonase protection and TPM assays; also called (His)6-MBP-MCPH1; wild-type MCPH1; source: Expi293F …
T2 sequence (looked up): T1 sequence

B1: dsDNA (Oligo 5+9) (dsDNA)
DNA 1: ACGCTGCCGAATTCTACCAGTGCCTTGCTAGGACATCTTTGCCCACCTGCAGGTTCACCC
DNA 2: GGGTGAACCTGCAGGTGGGCAAAGATGTCCTAGCAAGGCACTGGTAGAATTCGGCAGCGT
B2: Holliday junction (Oligo 5+6+7+8) (structured_DNA)
DNA 1: B1 DNA 1
DNA 2: GGGTGAACCTGCAGGTGGGCAAAGATGTCCATCTGTTGTAATCGTCAAGCTTTATGCCGT
DNA 3: ACGGCATAAAGCTTGACGATTACAACAGATCATGGAGCTGTCTAGAGGATCCGACTATCG
DNA 4: CGATAGTCGGATCCTCTAGACAGCTCCATGTAGCAAGGCACTGGTAGAATTCGGCAGCGT
B3: 3'-overhang DNA (Oligo 5+10) (mixed)
DNA 1: B1 DNA 1
DNA 2: AGGCACTGGTAGAATTCGGCAGCGT
B4: (His)6-SUMO-tagged mouse MCPH1 fragment, amino acids 628-822 (C-terminus, containing BRCT2 and BRCT3) (domain or fragment, UniProt Q7TT79 628-822, looked up)
chain: EKEEKPTRTLVMTSMPSEKQTLIIQVVSTLKGFSFAPEVCETTTHVLVGKSARTLNVLMGIARGCWILSYEWVLLSLELGHWISEEPFELSETFPAAPICRLERHLSTQQYQGTLFANQPKMFIAPASSPPRAKLCELVLLCGGQVSPAPQLASLIIGPYKGKKKARIQYLSEKWVLDSITQHKICDFNNYQLLQ
notes: mouse MCPH1, residues 628-822, containing BRCT2 and BRCT3; also called truncated MCPH1 variant; source: E. coli BL21*(DE3)(pLys), purified (Ni-NTA); not shown: His6, N-terminal, kept; SUMO, N-terminal, kept
B5: Strep-tagged mouse DMC1 (natural protein, UniProt Q61880 1-340, looked up)
chain: MKEDQVVQEESGFQDDEESLFQDIDLLQKHGINMADIKKLKSVGICTIKGIQMTTRRALCNVKGLSEAKVEKIKEAANKLIEPGFLTAFQYSERRKMVFHITTGSQEFDKLLGGGIESMAITEAFGEFRTGKTQLSHTLCVTAQLPGTGGYSGGKIIFIDTENTFRPDRLRDIADRFNVDHEAVLDNVLYARAYTSEHQMELLDYVAAKFHEEAGIFKLLIIDSIMALFRVDFSGRGELAERQQKLAQMLSRLQKISEEYNVAVFVTNQMTADPGATMTFQADPKKPIGGHILAHASTTRISLRKGRGELRIAKIYDSPEMPENEATFAITAGGIGDAKE
notes: mouse DMC1, the meiotic RAD51 homolog; (His)6-tagged mouse DMC1 was used in the Benzonase protection assay; also called meiotic recombinase DMC1
B6: (His)6-SUMO-tagged mouse MCPH1 fragment, amino acids 287-383 (central region containing the nuclear localization signal) (domain or fragment, UniProt Q7TT79 287-383, looked up)
chain: DSPSKESINCQKDATGAVADSERKQAAGVSQGVPDEKLCLSPTMSIIEEHQVRLGPKNSSAKRKRAADLGSSPKGKLKKRYKRKSALAIQLFKSDQS
notes: mouse MCPH1, residues 287-383, containing the nuclear localization signal; also called truncated MCPH1 variant; source: E. coli BL21*(DE3)(pLys), purified (Ni-NTA); not shown: His6, N-terminal, kept; SUMO, N-terminal, kept
B7: (His)6-SUMO-tagged mouse MCPH1 fragment, amino acids 384-476 (central region containing a Condensin-II binding region) (domain or fragment, UniProt Q7TT79 384-476, looked up)
chain: PPSTIRLIPGTPDVEASSYEDYFSPDNLKERNSERLPPEAQQLASPSLFHCRGLSKWERRNMLEMCDFTCIGEKHRSISSISDLISKSASSLE
notes: also called truncated MCPH1 variant; source: E. coli BL21*(DE3)(pLys), purified (Ni-NTA); not shown: His6, N-terminal, kept; SUMO, N-terminal, kept
B8: Strep-tagged mouse RAD51 (natural protein, UniProt Q08297 1-339, looked up)
chain: MAMQMQLEASADTSVEEESFGPQPISRLEQCGINANDVKKLEEAGYHTVEAVAYAPKKELINIKGISEAKADKILTEAAKLVPMGFTTATEFHQRRSEIIQITTGSKELDKLLQGGIETGSITEMFGEFRTGKTQICHTLAVTCQLPIDRGGGEGKAMYIDTEGTFRPERLLAVAERYGLSGSDVLDNVAYARGFNTDHQTQLLYQASAMMVESRYALLIVDSATALYRTDYSGRGELSARQMHLARFLRMLLRLADEFGVAVVITNQVVAQVDGAAMFAADPKKPIGGNIIAHASTTRLYLRKGRGETRICKIYDSPCLPEAEAMFAINADGVGDAKD
notes: mouse RAD51 recombinase; (His)6-tagged mouse RAD51 was used in the Benzonase protection and TPM assays; also called RAD51 recombinase
B9: (His)6-SUMO-tagged mouse MCPH1 fragment, amino acids 1-190 (N-terminus, containing BRCT1) (domain or fragment, UniProt Q7TT79 1-190, looked up)
chain: MEASGGVGGAFLKDVVAYVEVWSSKGTENYSRTFAKQLEDMGATVSKTLNKQVTHVIFKDGYQSTWDKAQKTGAKLVSVLWVEKCRMAGALVDESLFPAVNTDEHLPNLSRKKHKCMQPKDFILKTPENDKRLQKKFEKMAEELQRQKAALDDDVPVLLFESPRSLVYSSPVNVMKRRLQDMKEKRENLS
notes: mouse MCPH1, residues 1-190, containing BRCT1; also called truncated MCPH1 variant; source: E. coli BL21*(DE3)(pLys), purified (Ni-NTA); not shown: His6, N-terminal, kept; SUMO, N-terminal, kept
B10: Oligo 3 ssDNA (ssDNA)
DNA: GCCGTCGCATGACGCTGCCGAATTCTACCACGCTACTAGGGTGCCTTGCTAGGACATCTTTGCCCACCTGCAGGTTCACCCCGTCCCTGGC
B11: D-loop (Oligo 2+3+4) (mixed)
DNA 1: B10 DNA
DNA 2: GCCAGGGACGGGGTGAACCTGCAGGTGGGCGGCTGCTCATCGTAGGTTAGTATCGACCTATTGGTAGAATTCGGCAGCGTCATGCGACGGC
DNA 3: AAGATGTCCTAGCAAGGCACCCTAGTAGC

Key:
MCPH1 (tag-free) = target: T1, MCPH1 (tag-free); assay: EMSA; 50 mM KCl; EMSA: 35 mM Tris-HCl pH 7.5, 1 mM DTT, 50 mM KCl, 0.1 ug/ul BSA, 37 C, 5 min; DNA 750 nM (oligos) or 6 uM (PhiX174) nucleotides/bp. TPM: 100 mM KCl (150 mM high salt); conditions: protein: recombinant, tags: none (His6-MBP removed with PreScission)
Strep-tagged mouse RAD51 = target: B8; assay: pull-down; (His)6-SUMO-tagged MCPH1 fragments (2 μg) with Strep-tagged RAD51 or DMC1 (2 μg), same procedure (buffer D, Benzonase, Talon resin); SDS-PAGE and western blot with RAD51 or DMC1 antibody; conditions: both partners purified
Strep-tagged mouse DMC1 = target: B5; assay: as above; conditions: both partners purified
[1] = target: T2, (His)6-MBP-tagged mouse MCPH1 …; assay: pull-down; (His)6-MBP-MCPH1 (4 μg) incubated with recombinase (1 μg) in 30 μl buffer D (25 mM Tris-HCl pH 7.5, 10% glycerol, 0.01% Igepal, 100 mM KCl, 10 mM imidazole) 30 min at 37°C with Benzonase and 2 mM MgCl2; captured on Talon resin via the (His)6 tag; SDS-PAGE with Coomassie Blue staining; conditions: both partners purified

B1
binding result (MCPH1 (tag-free); label: 5'-32P on Oligo 5, blunt): binds

B2
binding result (MCPH1 (tag-free); label: 5'-32P on Oligo 5, four-way junction 1:2 2:3 3:4 4:1): binds

B3
binding result (MCPH1 (tag-free); label: 5'-32P on Oligo 5, 3' overhang 35 nt): binds

B4
binding result (Strep-tagged mouse RAD51): binds | binding result (Strep-tagged mouse DMC1): binds

B5
binding result [1]: binds

B6
binding result (Strep-tagged mouse RAD51): binds | binding result (Strep-tagged mouse DMC1): binds

B7
binding result (Strep-tagged mouse RAD51): binds | binding result (Strep-tagged mouse DMC1): binds

B8
binding result [1]: binds

B9
binding result (Strep-tagged mouse RAD51): binds | binding result (Strep-tagged mouse DMC1): binds

B10
binding result (MCPH1 (tag-free); label: 5'-32P, single strand): binds

B11
binding result (MCPH1 (tag-free); label: 5'-32P on Oligo 3, D-loop, Oligo 2 and 3 pair at both ends, Oligo 4 pairs in the bubble of Oligo 3): binds
